# In the RNAGym collection of RNA variant scans (doi:10.1073/pnas.2313332121):
# B1: TPR t1 (parent)
# chain: GACCAAUCUGCCCUCAGAGCUCGAGAACAUCUUCGGAUGCAGAGGAGGCAGGCUUCGGUGGCGCGAUAGCGCCAACGUCCUCAACCUCCAAUGCAUCCCACCACAUGAUGAUGCCUGAAGAGCCUUGGUUUUUUG
# Variants of: B1
# Experiment: polymerase ribozyme fitness, log enrichment relative to wild type (log ratio); higher = more active; in vitro selection for triplet polymerase activity
# Method in brief: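 A single round of triplicate in vitro selection, including frozen incubation at −7 °C, was applied to PCR-built, transcribed mutant libraries of each subunit of a heterodimeric triplet polymerase ribozyme. Illumina sequencing of input and output libraries retained genotypes with ≥10 input reads and ≥1 read per output. Fitness is the base-2 logarithm of genotype enrichment divided by wild-type enrichment, from inverse-variance-weighted replicate averages.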
row,Variant,polymerase ribozyme fitness (log ratio)
1,A37C G69U U96G U129A,-0.113
2,A37C G93A,-0.971
3,A37C G120A,1.02
4,A37C G122U,-0.263
5,A37G A43U G52A G57U C98U,-5.9
6,A37G A46G A83C,-2.03
7,A37G A50C G57A G117C,-6.92
8,A37G A50U C94U C104U G117C,-5.89
9,A37G A83C U125A,-0.963
10,A37G A95C,-1.66
11,A37G A118U,0.234
12,A37G C49G A111U U126G,-6.22
13,A37G C56G U96C,-0.381
14,A37G C62A G93U A121G,-3.43
15,A37G C64U,-0.479
16,A37G C64U C88U A121U,-0.585
17,A37G C72A A84G,-1.24
18,A37G C73A U96A,-3.88
19,A37G C88G,-2.83
20,A37G C89A,-2.41
21,A37G G39A C86G,-3.13

row,Variant,polymerase ribozyme fitness (log ratio)
1,A37G G42A G61A,-1.68
2,A37G G45C C89U A95G,-5.88
3,A37G G57C G58U G120U,-0.432
4,A37G G60A,-1.03
5,A37G G60C G117A,-1.95
6,A37G G60U C72G C99A A103G C114U U129C,-7.36
7,A37G G69U A100U C114G,-1.72
8,A37G G71U,-1.09
9,A37G U59G,0.0397
10,A37G U87C A95G A100U U130A,-3.04
11,A37U A41C C64A U109A G128U,-5.77
12,A37U A41U A50C C115U,-4.64
13,A37U A43U C73A U96C A111C U112A,-4.83
14,A37U A46U G47A C123G,-1.6
15,A37U A46U G47A U130G U131G,-3.56
16,A37U A66C A75U G120C,-1.07
17,A37U A74C C88G G110A,-3.27
18,A37U A74U,-0.149
19,A37U C40U U87C G135U,-1.29
20,A37U C56G C85U,-1.26
21,A37U C56G C114A,-1.64

row,Variant,polymerase ribozyme fitness (log ratio)
1,A37U C70U,-1.07
2,A37U C72A C98A C123G,-5.43
3,A37U C72U,-1.56
4,A37U C73G U130G,-1.38
5,A37U C86G C88U C104U U106A G113A C124G G127A,-4.82
6,A37U C88U,-0.319
7,A37U C98A,-5.84
8,A37U C101A G120A,-0.798
9,A37U C114A C124U,-1.39
10,A37U C123U,0.6
11,A37U G42C,-1.65
12,A37U G44A G113C U130A,-3.29
13,A37U G44A U87G A119U G128C,-3.53
14,A37U G45A C72G,-1.92
15,A37U G47U U54C U78G C85U A119U,-3.1
16,A37U G48U G57U U129C,-1.96
17,A37U G51C C79G A118G,-3.37
18,A37U G57A U109G,-5.89
19,A37U G60A,-0.626
20,A37U G63C G69U C97U C99U G110U,-5.81
21,A37U G63U A105C,-5.31

row,Variant,polymerase ribozyme fitness (log ratio)
1,A37U G71U,-0.54
2,A37U G71U G122A,-1.17
3,A37U G110C A121U,-3.77
4,A37U G127U,-1.42
5,A37U U54A A84U,-0.554
6,A37U U54A G61C U109C,-7.14
7,A37U U78C U87C,0.269
8,A37U U92C,-1.28
9,A37U U106G C123G,0.0565
10,A37U U125G,-1.07
11,U38A A50U C62U C123G U133A,-1.2
12,U38A A50U C73G A121U,-0.841
13,U38A C40A G93U,-0.915
14,U38A C49G U55G,-2.77
15,U38A C49U G110U,-4.28
16,U38A C64U U132A,-0.788
17,U38A C72G C86U G135U,-3.57
18,U38A C73U,-2.86
19,U38A C101G G120C,-2.43
20,U38A C102A,-4.22
